Source: publication PMC8509808, “Characterization of the Chimeric PriB-SSBc Protein” (International Journal of Molecular Sciences, 2021)

B1: dT55 (ssDNA)
DNA: TTTTTTTTTTTTTTTTTTTTTTTTTTTTTTTTTTTTTTTTTTTTTTTTTTTTTTT
B2: dT60 (ssDNA)
DNA: TTTTTTTTTTTTTTTTTTTTTTTTTTTTTTTTTTTTTTTTTTTTTTTTTTTTTTTTTTTT

Columns and labels:
Conditions in all cases: protein: recombinant; tags: none (tag-free); chain copies: 2; label: 5'-32P
[1] = target: T1, PriB-SSBc (chimera KpPriB 1-98 fused to KpSSB 112-174) (Klebsiella pneumoniae, UniProt A6THB2 1-98+A6TGW7:112-174, internal_change); assay: EMSA; monomer conc.; 1 complex; EMSA: 20 mM Tris-HCl pH 8.0, 100 mM NaCl, 25 C, 30 min, 1.7 nM 32P-ssDNA; 8% native PAGE in TBE at 4 C
[2] = target: T1, PriB-SSBc (chimera KpPriB 1-98 fused to …); assay: EMSA; ND; up to 5 uM protein; EMSA: 20 mM Tris-HCl pH 8.0, 100 mM NaCl, 25 C, 30 min, 1.7 nM 32P-ssDNA; 8% native PAGE in TBE at 4 C
[3] = target: T1, PriB-SSBc (chimera KpPriB 1-98 fused to …); assay: EMSA; monomer conc.; 2 complexes; EMSA: 20 mM Tris-HCl pH 8.0, 100 mM NaCl, 25 C, 30 min, 1.7 nM 32P-ssDNA; 8% native PAGE in TBE at 4 C

Binder	apparent K (half saturation) [1] [nM]	further results
TTTTTTTTTTTTTTTTTTTTTTTTTTTTTTTTTTTTTTTT (ssDNA) [dT40]	840 ± 60	–
TTTTTTTTTTTTTTT (ssDNA) [dT15]	–	binding result [2]: no binding
TTTTTTTTTTTTTTTTTTTTTTTTT (ssDNA) [dT25]	1150 ± 120	–
TTTTTTTTTTTTTTTTTTTTTTTTTTTTTTTTTTTTTTTTTTTTTTTTTT (ssDNA) [dT50]	290 ± 20	–
TTTTTTTTTTTTTTTTTTTTTTTTTTTTTT (ssDNA) [dT30]	940 ± 80	–
TTTTTTTTTTTTTTTTTTTT (ssDNA) [dT20]	2120 ± 180	–
B1	–	apparent K (half saturation) [3]: 330 ± 30 nM
B2	–	apparent K (half saturation) [3]: 230 ± 20 nM
